Laboratory results published in PMC9555238, “Interaction of BES1 and LBD37 transcription factors modulates brassinosteroid-regulated root forging response under low nitrogen in arabidopsis”.

Biological target: T1, LBD37 (Arabidopsis thaliana, UniProt Q9FN11 1-250)
T1 sequence: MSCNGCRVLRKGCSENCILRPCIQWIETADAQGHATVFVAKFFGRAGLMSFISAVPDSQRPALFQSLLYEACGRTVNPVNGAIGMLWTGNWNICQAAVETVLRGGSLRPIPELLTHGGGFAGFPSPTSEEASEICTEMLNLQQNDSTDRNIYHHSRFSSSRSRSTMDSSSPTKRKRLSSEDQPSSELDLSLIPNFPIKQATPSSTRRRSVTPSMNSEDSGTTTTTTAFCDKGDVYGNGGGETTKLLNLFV
Assay: EMSA; 5 mM HEPES-KOH pH 8.0, 50 mM KCl, 1 mM DTT, 10% glycerol, 20 uL, on ice 60 min; 5% native PAGE in TBE
Conditions: protein: recombinant; tags: MBP (N-terminal, pMAL-c2X); (LightShift chemiluminescent kit)

B1: NRT2.1 promoter probe, mutated LOB motif (dsDNA)
DNA 1: AGACTAGGAAGATGCTTGAAAAGAAAATGGATTCCTCGAAA
DNA 2: TTTCGAGGAATCCATTTTCTTTTCAAGCATCTTCCTAGTCT
binding result: no binding
